Measurements from publication PMC6723090.

Target: synthetic CDR1 peptide … with N-terminal Biotin-[TTDS] linker (human)
Experiment: affinity purification with mass spectrometry; spike-in: 2 ug recombinant HTRA2 added to 5 mg homogenized pig retina; beads with CDR peptide, scrambled peptide or biotin only (n = 3); eluates on 1-D SDS-PAGE, gel region above 49 kDa digested with trypsin, LC-MS/MS intensity of HTRA2

LC-MS intensity of recovered HTRA2: 4.2e+08
Substance: recombinant HTRA2/Omi (Human Serine Protease, cat. no. C760) (from UniProt O43464 32-458) (enzyme)
